US20140044713A1 (KONINKLIJKE NEDERLANDSE AKADEMIE VAN WETENSCHAPPEN, published 2014)

Tests used:
Test in all cases: TAP + mass spectrometry, HEK293 cells
LRP6 (endogenous) = biological target: T1, LRP6 (endogenous) (human, UniProt O75581 20-1613)
T1 construct: whole, on cells

LRP5 (endogenous) = biological target: T2, LRP5 (endogenous) (human, UniProt O75197 32-1615)
T2 construct: whole, on cells

[1] = biological target: T3, Lgr4 (endogenous, or expression construct whose tag is not stated) (human, UniProt Q9BXB1 25-951)
T3 construct: whole, on cells; Endogenous protein of HEK293T / LS174T cells in TAP-MS; also called endogenous Lgr4

Measured: binding result

T1 sequence (O75581 20-1613): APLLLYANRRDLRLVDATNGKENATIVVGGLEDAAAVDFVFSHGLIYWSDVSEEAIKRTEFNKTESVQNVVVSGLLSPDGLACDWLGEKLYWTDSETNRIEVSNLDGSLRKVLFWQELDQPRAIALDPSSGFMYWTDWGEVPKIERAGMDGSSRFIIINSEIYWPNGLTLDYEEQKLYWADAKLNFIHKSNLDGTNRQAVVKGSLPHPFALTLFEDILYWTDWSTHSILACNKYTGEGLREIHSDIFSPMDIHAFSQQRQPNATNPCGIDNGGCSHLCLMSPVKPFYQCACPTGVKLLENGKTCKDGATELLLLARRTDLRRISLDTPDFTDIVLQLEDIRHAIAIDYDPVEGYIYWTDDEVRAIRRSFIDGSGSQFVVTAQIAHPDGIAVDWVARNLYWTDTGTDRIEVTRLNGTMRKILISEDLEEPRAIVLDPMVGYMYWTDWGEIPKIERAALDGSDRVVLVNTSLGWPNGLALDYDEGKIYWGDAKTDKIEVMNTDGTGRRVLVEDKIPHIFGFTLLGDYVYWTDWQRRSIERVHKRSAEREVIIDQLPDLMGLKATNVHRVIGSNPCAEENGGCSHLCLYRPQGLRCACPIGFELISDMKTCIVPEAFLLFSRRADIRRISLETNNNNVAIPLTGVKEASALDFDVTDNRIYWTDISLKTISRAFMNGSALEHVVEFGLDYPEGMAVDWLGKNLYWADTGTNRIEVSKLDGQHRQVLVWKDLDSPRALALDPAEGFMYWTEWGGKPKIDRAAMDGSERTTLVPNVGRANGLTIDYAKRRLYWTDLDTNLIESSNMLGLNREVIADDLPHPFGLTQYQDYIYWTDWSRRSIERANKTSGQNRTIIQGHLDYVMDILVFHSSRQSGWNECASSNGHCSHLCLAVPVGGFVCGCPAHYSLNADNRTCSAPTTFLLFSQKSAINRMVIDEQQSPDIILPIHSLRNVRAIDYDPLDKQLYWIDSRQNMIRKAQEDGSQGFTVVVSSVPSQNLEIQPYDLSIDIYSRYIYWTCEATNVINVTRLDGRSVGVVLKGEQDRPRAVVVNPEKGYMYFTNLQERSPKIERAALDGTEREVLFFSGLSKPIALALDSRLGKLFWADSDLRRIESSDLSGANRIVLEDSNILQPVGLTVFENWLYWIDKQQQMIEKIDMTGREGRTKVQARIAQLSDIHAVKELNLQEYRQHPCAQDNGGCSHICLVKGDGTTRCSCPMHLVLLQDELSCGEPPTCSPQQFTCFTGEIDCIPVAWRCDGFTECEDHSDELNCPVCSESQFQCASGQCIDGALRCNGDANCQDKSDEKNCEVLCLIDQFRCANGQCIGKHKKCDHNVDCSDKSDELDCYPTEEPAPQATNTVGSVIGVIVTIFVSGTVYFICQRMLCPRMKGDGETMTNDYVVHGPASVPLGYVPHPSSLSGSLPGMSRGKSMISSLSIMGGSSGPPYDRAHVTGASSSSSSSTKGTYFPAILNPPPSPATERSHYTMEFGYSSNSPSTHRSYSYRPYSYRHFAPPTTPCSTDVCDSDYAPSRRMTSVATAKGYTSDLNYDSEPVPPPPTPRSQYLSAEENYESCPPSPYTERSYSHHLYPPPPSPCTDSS
T2 sequence (O75197 32-1615): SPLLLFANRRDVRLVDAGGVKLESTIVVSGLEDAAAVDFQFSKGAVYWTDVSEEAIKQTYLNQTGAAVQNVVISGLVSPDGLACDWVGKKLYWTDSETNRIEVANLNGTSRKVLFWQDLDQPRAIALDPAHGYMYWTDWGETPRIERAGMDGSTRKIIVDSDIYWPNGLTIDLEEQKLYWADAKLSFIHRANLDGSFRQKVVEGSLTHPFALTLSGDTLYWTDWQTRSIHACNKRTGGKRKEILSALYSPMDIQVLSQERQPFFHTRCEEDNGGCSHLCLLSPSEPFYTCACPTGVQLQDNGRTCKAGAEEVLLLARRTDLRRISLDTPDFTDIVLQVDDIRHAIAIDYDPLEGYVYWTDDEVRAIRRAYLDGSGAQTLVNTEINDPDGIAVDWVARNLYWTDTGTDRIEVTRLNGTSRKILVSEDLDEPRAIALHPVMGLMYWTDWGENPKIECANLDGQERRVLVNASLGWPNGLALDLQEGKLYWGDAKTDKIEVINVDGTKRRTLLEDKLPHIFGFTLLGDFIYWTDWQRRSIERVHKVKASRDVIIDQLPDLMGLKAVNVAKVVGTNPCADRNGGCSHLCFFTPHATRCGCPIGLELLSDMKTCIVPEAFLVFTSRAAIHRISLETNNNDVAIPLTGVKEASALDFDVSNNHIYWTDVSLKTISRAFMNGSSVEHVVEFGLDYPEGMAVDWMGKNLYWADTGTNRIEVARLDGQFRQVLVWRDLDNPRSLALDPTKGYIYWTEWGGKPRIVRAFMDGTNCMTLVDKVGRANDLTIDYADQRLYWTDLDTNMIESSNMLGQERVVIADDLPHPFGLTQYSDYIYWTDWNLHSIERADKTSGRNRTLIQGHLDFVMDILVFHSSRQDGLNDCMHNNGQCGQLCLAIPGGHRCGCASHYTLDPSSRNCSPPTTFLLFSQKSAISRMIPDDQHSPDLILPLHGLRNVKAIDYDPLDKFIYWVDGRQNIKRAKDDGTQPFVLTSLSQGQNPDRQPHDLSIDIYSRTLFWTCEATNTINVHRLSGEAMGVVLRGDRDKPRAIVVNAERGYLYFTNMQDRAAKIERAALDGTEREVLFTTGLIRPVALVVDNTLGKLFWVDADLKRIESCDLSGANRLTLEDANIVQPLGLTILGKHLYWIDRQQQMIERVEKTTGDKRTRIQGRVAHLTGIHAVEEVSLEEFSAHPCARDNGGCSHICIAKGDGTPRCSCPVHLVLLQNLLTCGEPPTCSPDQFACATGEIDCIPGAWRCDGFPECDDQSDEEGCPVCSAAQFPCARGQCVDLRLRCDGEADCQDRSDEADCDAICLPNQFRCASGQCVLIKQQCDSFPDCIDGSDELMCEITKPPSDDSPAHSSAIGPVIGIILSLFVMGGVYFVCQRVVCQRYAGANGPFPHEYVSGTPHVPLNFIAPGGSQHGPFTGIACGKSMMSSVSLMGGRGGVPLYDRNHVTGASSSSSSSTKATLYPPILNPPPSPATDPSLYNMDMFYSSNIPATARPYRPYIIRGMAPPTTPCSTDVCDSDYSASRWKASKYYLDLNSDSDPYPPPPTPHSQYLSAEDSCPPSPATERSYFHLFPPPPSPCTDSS

B1: FBXL2 (other, not shown: small tags and cut ends)
chain: MVFSNNDEGLINKKLPKELLLRIFSFLDIVTLCRCAQISKAWNILALDGSNWQRIDLFNFQTDVEGRVVENISKRCGGFLRKLSLRGCIGVGDSSLKTFAQNCRNIEHLNLNGCTKITDSTCYSLSRFCSKLKHLDLTSCVSITNSSLKGISEGCRNLEYLNLSWCDQITKDGIEALVRGCRGLKALLLRGCTQLEDEALKHIQNYCHELVSLNLQSCSRITDEGVVQICRGCHRLQALCLSGCSNLTDASLTALGLNCPRLQILEAARCSHLTDAGFTLLARNCHELEKMDLEECILITDSTLIQLSIHCPKLQALSLSHCELITDDGILHLSNSTCGHERLRVLELDNCLLITDVALEHLENCRGLERLELYDCQQVTRAGIKRMRAQLPHVKVHAYFAPVTPPTAVAGSGQRLCRCCVIL
notes: TAP-MS bait
no binding: all assays above

B2: EMI1 (other, not shown: small tags and cut ends)
chain: MSRRPCSCALRPPRCSCSASPSAVTAAGRPRPSDSCKEESSTLSVKMKCDFNCNHVHSGLKLVKPDDIGRLVSYTPAYLEGSCKDCIKDYERLSCIGSPIVSPRIVQLETESKRLHNKENQHVQQTLNSTNEIEALETSRLYEDSGYSSFSLQSGLSEHEEGSLLEENFGDSLQSCLLQIQSPDQYPNKNLLPVLHFEKVVCSTLKKNAKRNPKVDREMLKEIIARGNFRLQNIIGRKMGLECVDILSELFRRGLRHVLATILAQLSDMDLINVSKVSTTWKKILEDDKGAFQLYSKAIQRVTENNNKFSPHASTREYVMFRTPLASVQKSAAQTSLKKDAQTKLSNQGDQKGSTYSRHNEFSEVAKTLKKNESLKACIRCNSPAKYDCYLQRATCKREGCGFDYCTKCLCNYHTTKDCSDGKLLKASCKIGPLPGTKKSKKNLRRL
notes: TAP-MS bait
no binding: all assays above

B3: eEF2K (enzyme, not shown: small tags and cut ends)
chain: ADEDLIFRLEGVDGGQSPRAGHDGDSDGDSDDEEGYFICPITDDPSSNQNVNSKVNKYYSNLTKSERYSSSGSPANSFHFKEAWKHAIQKAKHMPDPWAEFHLEDIATERATRHRYNAVTGEWLDDEVLIKMASQPFGRGAMRECFRTKKLSNFLHAQQWKGASNYVAKRYIEPVDRDVYFEDVRLQMEAKLWGEEYNRHKPPKQVDIMQMCIIELKDRPGKPLFHLEHYIEGKYIKYNSNSGFVRDDNIRLTPQAFSHFTFERSGHQLIVVDIQGVGDLYTDPQIHTETGTDFGDGNLGVRGMALFFYSHACNRICESMGLAPFDLSPRERDAVNQNTKLLQSAKTILRGTEEKCGSPQVRTLSGSRPPLLRPLSENSGDENMSDVTFDSLPSSPSSATPHSQKLDHLHWPVFSDLDNMASRDHDHLDNHRESENSGDSGYPSEKRGELDDPEPREHGHSYSNRKYESDEDSLGSSGRVCVEKWNLLNSSRLHLPRASAVALEVQRLNALDLEKKIGKSILGKVHLAMVRYHEGGRFCEKGEEWDQESAVFHLEHAANLGELEAIVGLGLMYSQLPHHILADVSLKETEENKTKGFDYLLKAAEAGDRQSMILVARAFDSGQNLSPDRCQDWLEALHWYNTALEMTDCDEGGEYDGMQDEPRYMMLAREAEMLFTGGYGLEKDPQRSGDLYTQAAEAAMEAMKGRLANQYYQKAEEAWAQMEE
notes: TAP-MS bait
no binding: all assays above

B4: KCTD21 (other, not shown: small tags and cut ends)
chain: MSDPITLNVGGKLYTTSLATLTSFPDSMLGAMFSGKMPTKRDSQGNCFIDRDGKVFRYILNFLRTSHLDLPEDFQEMGLLRREADFYQVQPLIEALQEKEVELSKAEKNAMLNITLNQRVQTVHFTVREAPQIYSLSSSSMEVFNANIFSTSCLFLKLLGSKLFYCSNGNLSSITSHLQDPNHLTLDWVANVEGLPEEEYTKQNLKRLWVVPANKQINSFQVFVEEVLKIALSDGFCIDSSHPHALDFMNNKIIRLIRYR
notes: TAP-MS bait
no binding: all assays above

B5: UCHL1 (enzyme, not shown: small tags and cut ends)
chain: MQLKPMEINPEMLNKVLSRLGVAGQWRFVDVLGLEEESLGSVPAPACALLLLFPLTAQHENFRKKQIEELKGQEVSPKVYFMKQTIGNSCGTIGLIHAVANNQDKLGFEDGSVLKQFLSETEKMSPEDRAKCFEKNEAIQAAHDAVAQEGQCRVDDKVNFHFILFNNVDGHLYELDGRMPFPVNHGASSEDTLLKDAAKVCREFTEREQGEVRFSAVALC
notes: TAP-MS bait
no binding: all assays above
